The record followed here is paper PMC6152381, “The C5 Variant of the Butyrylcholinesterase Tetramer Includes a Noncovalently Bound 60 kDa Lamellipodin Fragment” (Molecules : A Journal of Synthetic Chemistry and Natural …, 2017).

Data set [1] deals with mouse anti-human BChE monoclonal antibody B2 18-5 (mouse). Put plainly: capture on immobilised antibody, activity assay of the unbound supernatant; hupresin-purified BChE (C4 and C5) in 0.02 M procaine, 0.02 M TrisCl pH 7.5 rotated with 0.04 mL B2 18-5 Sepharose beads at room temperature for 4 h.
mouse anti-human BChE monoclonal antibody B2 18-5 (mouse), sequence (heavy, as listed by the source, chain 1 of 2): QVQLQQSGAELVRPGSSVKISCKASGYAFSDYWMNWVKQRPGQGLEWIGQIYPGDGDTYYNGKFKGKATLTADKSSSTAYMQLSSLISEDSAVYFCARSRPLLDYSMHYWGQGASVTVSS
mouse anti-human BChE monoclonal antibody B2 18-5 (mouse), sequence (light, as listed by the source, chain 2 of 2): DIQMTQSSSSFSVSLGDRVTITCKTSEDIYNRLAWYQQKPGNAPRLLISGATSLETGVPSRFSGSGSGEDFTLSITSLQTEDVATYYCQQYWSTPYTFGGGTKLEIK
Data set [2] deals with the molecule itself. Put plainly: native gel or EMSA; pure human BChE from Cohn Fraction IV-4 on a 4-30% nondenaturing polyacrylamide gradient gel, 4 °C, stained for BChE activity.

For “human butyrylcholinesterase (BChE) (from UniProt P06276 29-602) (enzyme)”, the percent bound in data set [1] was found to be 97%.

B1: human butyrylcholinesterase (BChE) (enzyme, human (endogenous in plasma), UniProt P06276 29-602, looked up)
chain: EDDIIIATKNGKVRGMNLTVFGGTVTAFLGIPYAQPPLGRLRFKKPQSLTKWSDIWNATKYANSCCQNIDQSFPGFHGSEMWNPNTDLSEDCLYLNVWIPAPKPKNATVLIWIYGGGFQTGTSSLHVYDGKFLARVERVIVVSMNYRVGALGFLALPGNPEAPGNMGLFDQQLALQWVQKNIAAFGGNPKSVTLFGESAGAASVSLHLLSPGSHSLFTRAILQSGSFNAPWAVTSLYEARNRTLNLAKLTGCSRENETEIIKCLRNKDPQEILLNEAFVVPYGTPLSVNFGPTVDGDFLTDMPDILLELGQFKKTQILVGVNKDEGTAFLVYGAPGFSKDNNSIITRKEFQEGLKIFFPGVSEFGKESILFHYTDWVDDQRPENYREALGDVVGDYNFICPALEFTKKFSEWGNNAFFYYFEHRSSKLPWPEWMGVMHGYEIEFVFGLPLERRDNYTKAEEILSRSIVKRWANFAKYGNPNETQNNSTSWPVFKSTEQKYLTLNTESTRIMTKLRAQQCRFWTSFFPKVLEMTGNIDEAEWEWKAGFHRWNNYMMDWKNQFNDYTSKKESCVGL
modifications: 9 N-linked glycans
notes: each subunit has 574 amino acids; forty residues at the C-terminus are the tetramerization domain; also called C4; BChE tetramer; source: also purified from Cohn Fraction IV-4 (Q-ceramic ion exchange, hupresin)
In the case of B1, the binding result in data set [2] was “binds”.
